Measurements reported in publication PMC10524254.

Tests used:
surface FACS = details: glycan lost
[1] = CD79A-BioID2 proximity labelling, SILAC MS, TMD8; details: glycan lost; control: DMSO
[2] = dSTORM, Hopkins index and H-function, TMD8; details: glycan lost; control: untreated / control cells
[3] = IgM-TLR9 proximity ligation assay; details: glycan lost; control: wild type IgM
[4] = dual-color iSIM, Pearson correlation, TMD8; details: glycan lost; control: wild type IgM
[5] = IgM-LAMP1 proximity ligation assay; details: glycan lost; control: DMSO
[6] = anti-IgM Fab-pHrodo internalization, flow cytometry; details: glycan lost; control: DMSO

B1: CD79A: N112Q (protein)
parent chain: MPGGPGVLQALPATIFLLFLLSAVYLGPGCQALWMHKVPASLMVSLGEDAHFQCPHNSSNNANVTWWRVLHGNYTWPPEFLGPGEDPNGTLIIQNVNKSHGGIYVCRVQEGNESYQQSCGTYLRVRQPPPRPFLDMGEGTKNRIITAEGIILLFCAVVPGTLLLFRKRWQNEKLGLDAGDEYEDENLYEGLNLDDCSMYEDISRGLQGTYQDVGSLNIGDVQLEKP
- localisation_or_trafficking (surface FACS; control: wild type CD79A): no change

B2: CD79A: NGI-1 (protein)
parent chain: MPGGPGVLQALPATIFLLFLLSAVYLGPGCQALWMHKVPASLMVSLGEDAHFQCPHNSSNNANVTWWRVLHGNYTWPPEFLGPGEDPNGTLIIQNVNKSHGGIYVCRVQEGNESYQQSCGTYLRVRQPPPRPFLDMGEGTKNRIITAEGIILLFCAVVPGTLLLFRKRWQNEKLGLDAGDEYEDENLYEGLNLDDCSMYEDISRGLQGTYQDVGSLNIGDVQLEKP
- other: proximity [1]: increases

B3: IgM: quadruple mutant (N46Q, N209Q, N272Q, N279Q) (protein)
parent chain: GSASAPTLFPLVSCENSPSDTSSVAVGCLAQDFLPDSITFSWKYKNNSDISSTRGFPSVLRGGKYAATSQVLLPSKDVMQGTDEHVVCKVQHPNGNKEKNVPLPVIAELPPKVSVFVPPRDGFFGNPRKSKLICQATGFSPRQIQVSWLREGKQVGSGVTTDQVQAEAKESGPTTYKVTSTLTIKESDWLGQSMFTCRVDHRGLTFQQNASSMCVPDQDTAIRVFAIPPSFASIFLTKSTKLTCLVTDLTTYDSVTISWTRQNGEAVKTHTNISESHPNATFSAVGEASICEDDWNSGERFTCTVTHTDLPSPLKQTISRPKGVALHRPDVYLLPPAREQLNLRESATITCLVTGFSPADVFVQWMQRGQPLSPEKYVTSAPMPEPQAPGRYFAHSILTVSEEEWNTGETYTCVVAHEALPNRVTERTVDKSTEGEVSADEEGFENLWATASTFIVLFLLSLFYSTTVTLFKVK
- localisation_or_trafficking (surface FACS; control: wild type IgM): no change

B4: IgM: STT3B knockout (protein)
parent chain: GSASAPTLFPLVSCENSPSDTSSVAVGCLAQDFLPDSITFSWKYKNNSDISSTRGFPSVLRGGKYAATSQVLLPSKDVMQGTDEHVVCKVQHPNGNKEKNVPLPVIAELPPKVSVFVPPRDGFFGNPRKSKLICQATGFSPRQIQVSWLREGKQVGSGVTTDQVQAEAKESGPTTYKVTSTLTIKESDWLGQSMFTCRVDHRGLTFQQNASSMCVPDQDTAIRVFAIPPSFASIFLTKSTKLTCLVTDLTTYDSVTISWTRQNGEAVKTHTNISESHPNATFSAVGEASICEDDWNSGERFTCTVTHTDLPSPLKQTISRPKGVALHRPDVYLLPPAREQLNLRESATITCLVTGFSPADVFVQWMQRGQPLSPEKYVTSAPMPEPQAPGRYFAHSILTVSEEEWNTGETYTCVVAHEALPNRVTERTVDKSTEGEVSADEEGFENLWATASTFIVLFLLSLFYSTTVTLFKVK
- other: surface clustering [2]: decreases

B5: IgM: N209 mutant (protein)
parent chain: GSASAPTLFPLVSCENSPSDTSSVAVGCLAQDFLPDSITFSWKYKNNSDISSTRGFPSVLRGGKYAATSQVLLPSKDVMQGTDEHVVCKVQHPNGNKEKNVPLPVIAELPPKVSVFVPPRDGFFGNPRKSKLICQATGFSPRQIQVSWLREGKQVGSGVTTDQVQAEAKESGPTTYKVTSTLTIKESDWLGQSMFTCRVDHRGLTFQQNASSMCVPDQDTAIRVFAIPPSFASIFLTKSTKLTCLVTDLTTYDSVTISWTRQNGEAVKTHTNISESHPNATFSAVGEASICEDDWNSGERFTCTVTHTDLPSPLKQTISRPKGVALHRPDVYLLPPAREQLNLRESATITCLVTGFSPADVFVQWMQRGQPLSPEKYVTSAPMPEPQAPGRYFAHSILTVSEEEWNTGETYTCVVAHEALPNRVTERTVDKSTEGEVSADEEGFENLWATASTFIVLFLLSLFYSTTVTLFKVK
- other: proximity (My-T-BCR formation) [3]: decreases
- other: plasma-membrane colocalisation [4]: increases

B6: IgM: N209Q (protein)
parent chain: GSASAPTLFPLVSCENSPSDTSSVAVGCLAQDFLPDSITFSWKYKNNSDISSTRGFPSVLRGGKYAATSQVLLPSKDVMQGTDEHVVCKVQHPNGNKEKNVPLPVIAELPPKVSVFVPPRDGFFGNPRKSKLICQATGFSPRQIQVSWLREGKQVGSGVTTDQVQAEAKESGPTTYKVTSTLTIKESDWLGQSMFTCRVDHRGLTFQQNASSMCVPDQDTAIRVFAIPPSFASIFLTKSTKLTCLVTDLTTYDSVTISWTRQNGEAVKTHTNISESHPNATFSAVGEASICEDDWNSGERFTCTVTHTDLPSPLKQTISRPKGVALHRPDVYLLPPAREQLNLRESATITCLVTGFSPADVFVQWMQRGQPLSPEKYVTSAPMPEPQAPGRYFAHSILTVSEEEWNTGETYTCVVAHEALPNRVTERTVDKSTEGEVSADEEGFENLWATASTFIVLFLLSLFYSTTVTLFKVK
- localisation_or_trafficking (surface FACS; control: wild type IgM): no change

B7: IgM: N46 mutant (protein)
parent chain: GSASAPTLFPLVSCENSPSDTSSVAVGCLAQDFLPDSITFSWKYKNNSDISSTRGFPSVLRGGKYAATSQVLLPSKDVMQGTDEHVVCKVQHPNGNKEKNVPLPVIAELPPKVSVFVPPRDGFFGNPRKSKLICQATGFSPRQIQVSWLREGKQVGSGVTTDQVQAEAKESGPTTYKVTSTLTIKESDWLGQSMFTCRVDHRGLTFQQNASSMCVPDQDTAIRVFAIPPSFASIFLTKSTKLTCLVTDLTTYDSVTISWTRQNGEAVKTHTNISESHPNATFSAVGEASICEDDWNSGERFTCTVTHTDLPSPLKQTISRPKGVALHRPDVYLLPPAREQLNLRESATITCLVTGFSPADVFVQWMQRGQPLSPEKYVTSAPMPEPQAPGRYFAHSILTVSEEEWNTGETYTCVVAHEALPNRVTERTVDKSTEGEVSADEEGFENLWATASTFIVLFLLSLFYSTTVTLFKVK
- other: proximity (My-T-BCR formation) [3]: decreases
- other: plasma-membrane colocalisation [4]: increases

B8: IgM: NGI-1 (protein)
parent chain: GSASAPTLFPLVSCENSPSDTSSVAVGCLAQDFLPDSITFSWKYKNNSDISSTRGFPSVLRGGKYAATSQVLLPSKDVMQGTDEHVVCKVQHPNGNKEKNVPLPVIAELPPKVSVFVPPRDGFFGNPRKSKLICQATGFSPRQIQVSWLREGKQVGSGVTTDQVQAEAKESGPTTYKVTSTLTIKESDWLGQSMFTCRVDHRGLTFQQNASSMCVPDQDTAIRVFAIPPSFASIFLTKSTKLTCLVTDLTTYDSVTISWTRQNGEAVKTHTNISESHPNATFSAVGEASICEDDWNSGERFTCTVTHTDLPSPLKQTISRPKGVALHRPDVYLLPPAREQLNLRESATITCLVTGFSPADVFVQWMQRGQPLSPEKYVTSAPMPEPQAPGRYFAHSILTVSEEEWNTGETYTCVVAHEALPNRVTERTVDKSTEGEVSADEEGFENLWATASTFIVLFLLSLFYSTTVTLFKVK
- localisation_or_trafficking [5]: decreases
- localisation_or_trafficking [6]: decreases
- other: surface clustering [2]: decreases

B9: CD79B: N73Q (protein)
parent chain: MARLALSPVPSHWMVALLLLLSAEPVPAARSEDRYRNPKGSACSRIWQSPRFIARKRGFTVKMHCYMNSASGNVSWLWKQEMDENPQQLKLEKGRMEESQNESLATLTIQGIRFEDNGIYFCQQKCNNTSEVYQGCGTELRVMGFSTLAQLKQRNTLKDGIIMIQTLLIILFIIVPIFLLLDKDDSKAGMEEDHTYEGLDIDQTATYEDIVTLRTGEVKWSVGEHPGQE
- localisation_or_trafficking (surface FACS; control: wild type CD79B): no change

B10: CD79B: N101Q (protein)
parent chain: MARLALSPVPSHWMVALLLLLSAEPVPAARSEDRYRNPKGSACSRIWQSPRFIARKRGFTVKMHCYMNSASGNVSWLWKQEMDENPQQLKLEKGRMEESQNESLATLTIQGIRFEDNGIYFCQQKCNNTSEVYQGCGTELRVMGFSTLAQLKQRNTLKDGIIMIQTLLIILFIIVPIFLLLDKDDSKAGMEEDHTYEGLDIDQTATYEDIVTLRTGEVKWSVGEHPGQE
- localisation_or_trafficking (surface FACS; control: wild type CD79B): no change

B11: CD79B: triple mutant (N73Q, N101Q, N127Q) (protein)
parent chain: MARLALSPVPSHWMVALLLLLSAEPVPAARSEDRYRNPKGSACSRIWQSPRFIARKRGFTVKMHCYMNSASGNVSWLWKQEMDENPQQLKLEKGRMEESQNESLATLTIQGIRFEDNGIYFCQQKCNNTSEVYQGCGTELRVMGFSTLAQLKQRNTLKDGIIMIQTLLIILFIIVPIFLLLDKDDSKAGMEEDHTYEGLDIDQTATYEDIVTLRTGEVKWSVGEHPGQE
- localisation_or_trafficking (surface FACS; control: wild type CD79B): no change
